Data as given in US20230357420A1 (VILLARIS THERAPEUTICS, published 2023).

T1: Human CD122 His tagged (human, UniProt P14784 27-240)
T1 construct: also called hCD122; monomeric antigen; not shown: His tag
T1 sequence: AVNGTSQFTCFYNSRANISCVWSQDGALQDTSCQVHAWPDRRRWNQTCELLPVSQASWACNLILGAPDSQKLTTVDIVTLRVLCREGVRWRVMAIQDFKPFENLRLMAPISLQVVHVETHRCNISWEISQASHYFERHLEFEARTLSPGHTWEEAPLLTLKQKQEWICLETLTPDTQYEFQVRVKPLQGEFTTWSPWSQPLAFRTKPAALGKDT

T2: Rhesus CD122 His tag (rhesus monkey, UniProt Q38J85 27-240 (cynomolgus entry))
T2 construct: also called rhCD122; cynomolgus and/or rhesus monkey CD122 His tag; not shown: His tag
T2 sequence: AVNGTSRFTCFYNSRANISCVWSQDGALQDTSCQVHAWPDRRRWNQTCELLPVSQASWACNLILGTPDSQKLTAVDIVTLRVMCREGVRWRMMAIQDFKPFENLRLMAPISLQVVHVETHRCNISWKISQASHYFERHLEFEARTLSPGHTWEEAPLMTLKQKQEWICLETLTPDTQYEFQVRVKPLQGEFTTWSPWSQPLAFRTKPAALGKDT

T3: Human CILP2 protein (human, UniProt Q8IUL8 21-1156, limits assumed)
T3 construct: also called cartilage intermediate layer protein 2
T3 sequence (looked up): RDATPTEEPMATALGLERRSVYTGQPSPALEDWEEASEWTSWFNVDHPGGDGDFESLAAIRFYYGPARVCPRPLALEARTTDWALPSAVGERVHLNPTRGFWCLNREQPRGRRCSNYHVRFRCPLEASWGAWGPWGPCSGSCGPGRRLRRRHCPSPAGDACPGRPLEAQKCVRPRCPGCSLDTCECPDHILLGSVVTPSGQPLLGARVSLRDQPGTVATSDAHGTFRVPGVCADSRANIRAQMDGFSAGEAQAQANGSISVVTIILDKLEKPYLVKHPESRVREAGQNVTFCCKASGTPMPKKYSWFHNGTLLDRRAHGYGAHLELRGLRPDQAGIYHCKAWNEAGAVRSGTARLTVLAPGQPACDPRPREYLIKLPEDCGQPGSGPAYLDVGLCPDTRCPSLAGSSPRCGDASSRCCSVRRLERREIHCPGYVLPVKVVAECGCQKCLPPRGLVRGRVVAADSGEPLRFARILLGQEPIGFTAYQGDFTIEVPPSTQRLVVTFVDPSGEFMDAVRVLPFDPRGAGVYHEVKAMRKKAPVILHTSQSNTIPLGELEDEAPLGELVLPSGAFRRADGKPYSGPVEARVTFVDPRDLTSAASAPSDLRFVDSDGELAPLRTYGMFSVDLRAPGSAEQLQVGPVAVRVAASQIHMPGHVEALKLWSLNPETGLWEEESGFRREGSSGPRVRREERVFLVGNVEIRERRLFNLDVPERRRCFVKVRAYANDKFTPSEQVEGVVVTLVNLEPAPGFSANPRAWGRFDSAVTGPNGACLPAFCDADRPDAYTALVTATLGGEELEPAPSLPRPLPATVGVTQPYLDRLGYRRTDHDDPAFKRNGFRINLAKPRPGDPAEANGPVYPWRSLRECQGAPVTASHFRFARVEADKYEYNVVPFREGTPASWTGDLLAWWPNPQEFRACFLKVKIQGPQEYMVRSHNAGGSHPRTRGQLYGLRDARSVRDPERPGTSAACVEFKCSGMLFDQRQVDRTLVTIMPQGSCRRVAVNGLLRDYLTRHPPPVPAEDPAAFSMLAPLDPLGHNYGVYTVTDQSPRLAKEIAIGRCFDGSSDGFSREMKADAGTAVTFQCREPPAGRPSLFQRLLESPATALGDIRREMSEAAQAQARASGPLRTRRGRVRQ


Columns and labels:
Human CD122 His tagged [1] = biological target: T1, Human CD122 His tagged; assay: Biacore SPR, Fab
Rhesus CD122 His tag = biological target: T2, Rhesus CD122 His tag; assay: Biacore SPR, Fab
Human CD122 His tagged [2] = biological target: T1, Human CD122 His tagged; assay: Biacore, Fab affinity and kinetics on hCD122
Human CILP2 protein = biological target: T3, Human CILP2 protein; assay: BIACORE SPR, Fab at 62.5, 125, 250, 500 and 1000 nM on human CILP2 protein; Rmax
Human neudesin protein = biological target: T4, Human neudesin protein (human, UniProt Q9UMX5 32-172); assay: BIACORE SPR, Fab at 62.5, 125, 250, 500 and 1000 nM on human neudesin protein; Rmax
T4 construct: also called NENF
T4 sequence (Q9UMX5 32-172 limits assumed): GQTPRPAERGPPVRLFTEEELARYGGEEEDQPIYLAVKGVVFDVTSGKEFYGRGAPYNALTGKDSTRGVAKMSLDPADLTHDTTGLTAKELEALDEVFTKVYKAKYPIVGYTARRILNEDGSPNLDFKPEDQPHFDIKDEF

Binder	Kd (Human CD122 His tagged [1]) [nM]	Kd (Rhesus CD122 His tag) [nM]	Kd (Human CD122 His tagged [2]) [nM]	koff (Human CD122 His tagged [2]) [s⁻¹]	kon (Human CD122 His tagged [2]) [M⁻¹ s⁻¹]	binding result (Human CILP2 protein)	binding result (Human neudesin protein)
FAB18 (Fab, V domains shown, 06F11-V optimization variant; also called Fab version of MAB18) VH: EVQLLESGGGLVQPGGSLRLSCAASGFSVTSYGVHWIRQAPGKGLEWLGVIWSGGSTDYNAAFISRLTISKDNSKNTVYFQMNSLRAEDTAVYYCARAGDYNYDGFAYWGQGTLVTVSS VL: DIQMTQSPSSLSASVGDRVTITCQASSSVSFMYWYQQRPGKAPRLLIYDTSNLASGVPSRFSGSGSGTSYTFTISSLQPEDIATYYCQQWSTYPLTFGQGTKVEIK	11.5	8.55	11.5	0.0039	340000	no binding (tested: 1000 nM)	no binding (tested: 1000 nM)
FAB10 (Fab, V domains shown, 06F11-V optimization variant) VH: EVQLLESGGGLVQPGGSLRLSCAASGFTVTSYAVHWVRQAPGKGLEWLGVIWSGGSTDYNAAFISRLTISKDNSKNTVYFQMNSLRAEDTAVYYCARAGDYNYDGFAYWGQGTLVTVSS VL: DIQMTQSPSSLSASVGDRVTITCQASSSVSFMYWYQQRPGKAPRLLIYDTSNLASGVPSRFSGSGSGTSYTFTISSLQPEDIATYYCQQWDTYPLTFGGGTKVEIK		16.7					
FAB08 (Fab, V domains shown, 06F11-V optimization variant) VH: not shown VL: DIQMTQSPSSLSASVGDRVTITCQASQSVSFLYWYQQRPGKAPRLLIYDTSNLASGVPSRFSGSGSGTSYTFTISSLQPEDIATYYCQQWSTYPLTFGQGTKVEIK	41.2	30.7					
FAB11 (Fab, V domains shown, 06F11-V optimization variant) VH: EVQLLESGGGLVQPGGSLRLSCAASGFTVTSYAVHWVRQAPGKGLEWLGVIWSGGSTDYNAAFISRLTISKDNSKNTVYFQMNSLRAEDTAVYYCARAGDYNYDGFAYWGQGTLVTVSS VL: DIQMTQSPSSLSASVGDRVTITCQASQSVSFLYWYQQRPGKAPRLLIYDTSNLASGVPSRFSGSGSGTSYTFTISSLQPEDIATYYCQQWSTYPLTFGQGTKVEIK	17.7	15.9					
FAB09 (Fab, V domains shown, 06F11-V optimization variant) VH: not shown VL: DIQMTQSPSSLSASVGDRVTITCQASSSVSFMYWYQQRPGKAPRLLIYDTSNLASGVPSRFSGSGSGTSYTFTISSLQPEDIATYYCQQWSTYPLTFGQGTKVEIK	72.5	36.5					
FAB03 (Fab, V domains shown, 06F11-V optimization variant) VH: not shown VL: DIQMTQSPSSLSASVGDRVTITCQASSSVSFMYWYQQRPGKAPRLLIYDTSNLASGVPSRFSGSGSGTSYTFTISSLQPEDIATYYCQQWSTYPLTFGQGTKVEIK	38.6	20.6					
FAB07 (Fab, V domains shown, 06F11-V optimization variant) VH: not shown VL: DIQMTQSPSSLSASVGDRVTITCQASSSVSFMYWYQQRPGKAPRLLIYDTSNLASGVPSRFSGSGSGTSYTFTISSLQPEDIATYYCQQWDTYPLTFGGGTKVEIK	30.1	16.3					
FAB01 (Fab, V domains shown, 06F11-V optimization variant) VH: not shown VL: DIQMTQSPSSLSASVGDRVTITCQASSSVSFMYWYQQRPGKAPRLLIYDTSNLASGVPSRFSGSGSGTSYTFTISSLQPEDIATYYCQQWDTYPLTFGGGTKVEIK	33.6	14.4					
FAB02 (Fab, V domains shown, 06F11-V optimization variant) VH: not shown VL: DIQMTQSPSSLSASVGDRVTITCQASQSVSFLYWYQQRPGKAPRLLIYDTSNLASGVPSRFSGSGSGTSYTFTISSLQPEDIATYYCQQWSTYPLTFGQGTKVEIK	50.6	22.5					
FAB12 (Fab, V domains shown, 06F11-V optimization variant) VH: EVQLLESGGGLVQPGGSLRLSCAASGFTVTSYAVHWVRQAPGKGLEWLGVIWSGGSTDYNAAFISRLTISKDNSKNTVYFQMNSLRAEDTAVYYCARAGDYNYDGFAYWGQGTLVTVSS VL: DIQMTQSPSSLSASVGDRVTITCQASSSVSFMYWYQQRPGKAPRLLIYDTSNLASGVPSRFSGSGSGTSYTFTISSLQPEDIATYYCQQWSTYPLTFGQGTKVEIK	21.8	19.5					

Next, values leading:

Kd (Human CD122 His tagged [1]) [nM]	Kd (Rhesus CD122 His tag) [nM]	Kd (Human CD122 His tagged [2]) [nM]	koff (Human CD122 His tagged [2]) [s⁻¹]	kon (Human CD122 His tagged [2]) [M⁻¹ s⁻¹]	binding result (Human CILP2 protein)	binding result (Human neudesin protein)	Binder
10.2	8.86	10.2	0.0058	570000	no binding (tested: 1000 nM)	no binding (tested: 1000 nM)	FAB05 (Fab, V domains shown, 06F11-V optimization variant; also called Fab version of MAB05) VH: EVQLLESGGGLVQPGGSLRLSCAASGFTVTSYAVHWVRQAPGKGLEWLGVIWSGGSTDYNAAFISRLTISKDNSKNTVYFQMNSLRAEDTAVYYCARAGDANYDGFAYWGQGTLVTVSS VL: DIQMTQSPSSLSASVGDRVTITCQASQSVSFLYWYQQRPGKAPRLLIYDTSNLASGVPSRFSGSGSGTSYTFTISSLQPEDIATYYCQQWSTYPLTFGQGTKVEIK
8.04	9.78	8	0.0044	540000	no binding (tested: 1000 nM)	no binding (tested: 1000 nM)	FAB06 (Fab, V domains shown, 06F11-V optimization variant; also called Fab version of MAB06) VH: EVQLLESGGGLVQPGGSLRLSCAASGFTVTSYAVHWVRQAPGKGLEWLGVIWSGGSTDYNAAFISRLTISKDNSKNTVYFQMNSLRAEDTAVYYCARAGDANYDGFAYWGQGTLVTVSS VL: DIQMTQSPSSLSASVGDRVTITCQASSSVSFMYWYQQRPGKAPRLLIYDTSNLASGVPSRFSGSGSGTSYTFTISSLQPEDIATYYCQQWSTYPLTFGQGTKVEIK
5.37	3.25						FAB13 (Fab, V domains shown, 06F11-V optimization variant) VH: EVQLLESGGGLVQPGGSLRLSCAASGFSVTSYGVHWIRQAPGKGLEWLGVIWSGGSTDYNAAFISRLTISKDNSKNTVYFQMNSLRAEDTAVYYCARAGDANYDGFAYWGQGTLVTVSS VL: DIQMTQSPSSLSASVGDRVTITCQASSSVSFMYWYQQRPGKAPRLLIYDTSNLASGVPSRFSGSGSGTSYTFTISSLQPEDIATYYCQQWDTYPLTFGGGTKVEIK
13.8	9.26						FAB04 (Fab, V domains shown, 06F11-V optimization variant) VH: EVQLLESGGGLVQPGGSLRLSCAASGFTVTSYAVHWVRQAPGKGLEWLGVIWSGGSTDYNAAFISRLTISKDNSKNTVYFQMNSLRAEDTAVYYCARAGDANYDGFAYWGQGTLVTVSS VL: DIQMTQSPSSLSASVGDRVTITCQASSSVSFMYWYQQRPGKAPRLLIYDTSNLASGVPSRFSGSGSGTSYTFTISSLQPEDIATYYCQQWDTYPLTFGGGTKVEIK
8.56	5.04						FAB16 (Fab, V domains shown, 06F11-V optimization variant) VH: EVQLLESGGGLVQPGGSLRLSCAASGFSVTSYGVHWIRQAPGKGLEWLGVIWSGGSTDYNAAFISRLTISKDNSKNTVYFQMNSLRAEDTAVYYCARAGDYNYDGFAYWGQGTLVTVSS VL: DIQMTQSPSSLSASVGDRVTITCQASSSVSFMYWYQQRPGKAPRLLIYDTSNLASGVPSRFSGSGSGTSYTFTISSLQPEDIATYYCQQWDTYPLTFGGGTKVEIK
